The source of these data is patent publication US20220062341A1 (KIRIN, published 2022).

Bounds are passed on as bounds.

B1: modified TCR consisting of β1 and α1 (TCR)
TCR alpha: YQLRDSKSSDKSVCLFTDFDSQTNVSQSKDSDVYITDKTVLDMRSMDFKSNSAVAWSNKSDFACANAFNNSIIPEDTFFPSPESSCDVKLVEKSFETDTNLNFQNLSVIGFRILLLKVAGFNLLMTLRLWSS
TCR beta: SEAEISHTQKATLVCLATGFYPDHVELSWWVNGKEVHSGVSTDPQPLKEQPALNDSRYCLSSRLRVSATFWQNPRNHFRCQVQFYGLSENDEWTQDRAKPVTQIVSAEAWGRADCGFTSESYQQGVLSATILYEILLGKATLYAVLVSALVLMAMVKRKDSRG
B2: modified TCR consisting of β2 and α1 (TCR)
TCR alpha: YQLRDSKSSDKSVCLFTDFDSQTNVSQSKDSDVYITDKTVLDMRSMDFKSNSAVAWSNKSDFACANAFNNSIIPEDTFFPSPESSCDVKLVEKSFETDTNLNFQNLSVIGFRILLLKVAGFNLLMTLRLWSS
TCR beta: ATLVCLATGFYPDHVELSWWVNGKEVHSGVSTDPQPLKEQPALNDSRYCLSSRLRVSATFWQNPRNHFRCQVQFYGLSENDEWTQDRAKPVTQIVSAEAWGRADCGFTSESYQQGVLSATILYEILLGKATLYAVLVSALVLMAMVKRKDSRG
B3: modified TCR consisting of β2 and α2 (TCR)
TCR alpha: SVCLFTDFDSQTNVSQSKDSDVYITDKTVLDMRSMDFKSNSAVAWSNKSDFACANAFNNSIIPEDTFFPSPESSCDVKLVEKSFETDTNLNFQNLSVIGFRILLLKVAGFNLLMTLRLWSS
TCR beta: ATLVCLATGFYPDHVELSWWVNGKEVHSGVSTDPQPLKEQPALNDSRYCLSSRLRVSATFWQNPRNHFRCQVQFYGLSENDEWTQDRAKPVTQIVSAEAWGRADCGFTSESYQQGVLSATILYEILLGKATLYAVLVSALVLMAMVKRKDSRG
B4: modified TCR consisting of β2 and α4 (TCR)
TCR alpha: DVYITDKTVLDMRSMDFKSNSAVAWSNKSDFACANAFNNSIIPEDTFFPSPESSCDVKLVEKSFETDTNLNFQNLSVIGFRILLLKVAGFNLLMTLRLWSS
TCR beta: ATLVCLATGFYPDHVELSWWVNGKEVHSGVSTDPQPLKEQPALNDSRYCLSSRLRVSATFWQNPRNHFRCQVQFYGLSENDEWTQDRAKPVTQIVSAEAWGRADCGFTSESYQQGVLSATILYEILLGKATLYAVLVSALVLMAMVKRKDSRG
B5: modified TCR of the combination of βCR and αCR (TCR)
TCR alpha: NIQNPDPAVYQLRDSKSSDKSVCLFTDFDSQTNVSQSKDSDVYITDKTVLDMRSMDFKSNSAVAWSNKSDFACANAFNNSIIPEDTFFPSPESSCDVKLVEKSFETDTNLNFQNLSVIGFRILLLKVAGFNLLMTLRLWSS
TCR beta: EDLKNVFPPEVAVFEPSEAEISHTQKATLVCLATGFYPDHVELSWWVNGKEVHSGVSTDPQPLKEQPALNDSRYCLSSRLRVSATFWQNPRNHFRCQVQFYGLSENDEWTQDRAKPVTQIVSAEAWGRADCGFTSESYQQGVLSATILYEILLGKATLYAVLVSALVLMAMVKRKDSRG
B6: modified TCR of the combination of βCR and α4 (TCR)
TCR alpha: DVYITDKTVLDMRSMDFKSNSAVAWSNKSDFACANAFNNSIIPEDTFFPSPESSCDVKLVEKSFETDTNLNFQNLSVIGFRILLLKVAGFNLLMTLRLWSS
TCR beta: EDLKNVFPPEVAVFEPSEAEISHTQKATLVCLATGFYPDHVELSWWVNGKEVHSGVSTDPQPLKEQPALNDSRYCLSSRLRVSATFWQNPRNHFRCQVQFYGLSENDEWTQDRAKPVTQIVSAEAWGRADCGFTSESYQQGVLSATILYEILLGKATLYAVLVSALVLMAMVKRKDSRG
B7: modified TCR of the combination of βCR and α7 (TCR)
TCR alpha: SNKSDFACANAFNNSIIPEDTFFPSPESSCDVKLVEKSFETDTNLNFQNLSVIGFRILLLKVAGFNLLMTLRLWSS
TCR beta: EDLKNVFPPEVAVFEPSEAEISHTQKATLVCLATGFYPDHVELSWWVNGKEVHSGVSTDPQPLKEQPALNDSRYCLSSRLRVSATFWQNPRNHFRCQVQFYGLSENDEWTQDRAKPVTQIVSAEAWGRADCGFTSESYQQGVLSATILYEILLGKATLYAVLVSALVLMAMVKRKDSRG
B8: modified TCR consisting of β1 and αCR (TCR)
TCR alpha: NIQNPDPAVYQLRDSKSSDKSVCLFTDFDSQTNVSQSKDSDVYITDKTVLDMRSMDFKSNSAVAWSNKSDFACANAFNNSIIPEDTFFPSPESSCDVKLVEKSFETDTNLNFQNLSVIGFRILLLKVAGFNLLMTLRLWSS
TCR beta: SEAEISHTQKATLVCLATGFYPDHVELSWWVNGKEVHSGVSTDPQPLKEQPALNDSRYCLSSRLRVSATFWQNPRNHFRCQVQFYGLSENDEWTQDRAKPVTQIVSAEAWGRADCGFTSESYQQGVLSATILYEILLGKATLYAVLVSALVLMAMVKRKDSRG
B9: modified TCR consisting of β2 and αCR (TCR)
TCR alpha: NIQNPDPAVYQLRDSKSSDKSVCLFTDFDSQTNVSQSKDSDVYITDKTVLDMRSMDFKSNSAVAWSNKSDFACANAFNNSIIPEDTFFPSPESSCDVKLVEKSFETDTNLNFQNLSVIGFRILLLKVAGFNLLMTLRLWSS
TCR beta: ATLVCLATGFYPDHVELSWWVNGKEVHSGVSTDPQPLKEQPALNDSRYCLSSRLRVSATFWQNPRNHFRCQVQFYGLSENDEWTQDRAKPVTQIVSAEAWGRADCGFTSESYQQGVLSATILYEILLGKATLYAVLVSALVLMAMVKRKDSRG
B10: modified TCR of the combination of βCR and α3 (TCR)
TCR alpha: NVSQSKDSDVYITDKTVLDMRSMDFKSNSAVAWSNKSDFACANAFNNSIIPEDTFFPSPESSCDVKLVEKSFETDTNLNFQNLSVIGFRILLLKVAGFNLLMTLRLWSS
TCR beta: EDLKNVFPPEVAVFEPSEAEISHTQKATLVCLATGFYPDHVELSWWVNGKEVHSGVSTDPQPLKEQPALNDSRYCLSSRLRVSATFWQNPRNHFRCQVQFYGLSENDEWTQDRAKPVTQIVSAEAWGRADCGFTSESYQQGVLSATILYEILLGKATLYAVLVSALVLMAMVKRKDSRG
B11: modified TCR of the combination of βCR and α8 (TCR)
TCR alpha: CANAFNNSIIPEDTFFPSPESSCDVKLVEKSFETDTNLNFQNLSVIGFRILLLKVAGFNLLMTLRLWSS
TCR beta: EDLKNVFPPEVAVFEPSEAEISHTQKATLVCLATGFYPDHVELSWWVNGKEVHSGVSTDPQPLKEQPALNDSRYCLSSRLRVSATFWQNPRNHFRCQVQFYGLSENDEWTQDRAKPVTQIVSAEAWGRADCGFTSESYQQGVLSATILYEILLGKATLYAVLVSALVLMAMVKRKDSRG
B12: modified TCR of the combination of βCR and α10 (TCR)
TCR alpha: IPEDTFFPSPESSCDVKLVEKSFETDTNLNFQNLSVIGFRILLLKVAGFNLLMTLRLWSS
TCR beta: EDLKNVFPPEVAVFEPSEAEISHTQKATLVCLATGFYPDHVELSWWVNGKEVHSGVSTDPQPLKEQPALNDSRYCLSSRLRVSATFWQNPRNHFRCQVQFYGLSENDEWTQDRAKPVTQIVSAEAWGRADCGFTSESYQQGVLSATILYEILLGKATLYAVLVSALVLMAMVKRKDSRG
B13: modified TCR of the combination of βCR and α1 (TCR)
TCR alpha: YQLRDSKSSDKSVCLFTDFDSQTNVSQSKDSDVYITDKTVLDMRSMDFKSNSAVAWSNKSDFACANAFNNSIIPEDTFFPSPESSCDVKLVEKSFETDTNLNFQNLSVIGFRILLLKVAGFNLLMTLRLWSS
TCR beta: EDLKNVFPPEVAVFEPSEAEISHTQKATLVCLATGFYPDHVELSWWVNGKEVHSGVSTDPQPLKEQPALNDSRYCLSSRLRVSATFWQNPRNHFRCQVQFYGLSENDEWTQDRAKPVTQIVSAEAWGRADCGFTSESYQQGVLSATILYEILLGKATLYAVLVSALVLMAMVKRKDSRG
B14: modified TCR of the combination of βCR and α5 (TCR)
TCR alpha: LDMRSMDFKSNSAVAWSNKSDFACANAFNNSIIPEDTFFPSPESSCDVKLVEKSFETDTNLNFQNLSVIGFRILLLKVAGFNLLMTLRLWSS
TCR beta: EDLKNVFPPEVAVFEPSEAEISHTQKATLVCLATGFYPDHVELSWWVNGKEVHSGVSTDPQPLKEQPALNDSRYCLSSRLRVSATFWQNPRNHFRCQVQFYGLSENDEWTQDRAKPVTQIVSAEAWGRADCGFTSESYQQGVLSATILYEILLGKATLYAVLVSALVLMAMVKRKDSRG
B15: modified TCR of the combination of βCR and α9 (TCR)
TCR alpha: FNNSIIPEDTFFPSPESSCDVKLVEKSFETDTNLNFQNLSVIGFRILLLKVAGFNLLMTLRLWSS
TCR beta: EDLKNVFPPEVAVFEPSEAEISHTQKATLVCLATGFYPDHVELSWWVNGKEVHSGVSTDPQPLKEQPALNDSRYCLSSRLRVSATFWQNPRNHFRCQVQFYGLSENDEWTQDRAKPVTQIVSAEAWGRADCGFTSESYQQGVLSATILYEILLGKATLYAVLVSALVLMAMVKRKDSRG
B16: modified TCR of the combination of βCR and α6 (TCR)
TCR alpha: KSNSAVAWSNKSDFACANAFNNSIIPEDTFFPSPESSCDVKLVEKSFETDTNLNFQNLSVIGFRILLLKVAGFNLLMTLRLWSS
TCR beta: EDLKNVFPPEVAVFEPSEAEISHTQKATLVCLATGFYPDHVELSWWVNGKEVHSGVSTDPQPLKEQPALNDSRYCLSSRLRVSATFWQNPRNHFRCQVQFYGLSENDEWTQDRAKPVTQIVSAEAWGRADCGFTSESYQQGVLSATILYEILLGKATLYAVLVSALVLMAMVKRKDSRG
B17: modified TCR of the combination of βCR and α2 (TCR)
TCR alpha: SVCLFTDFDSQTNVSQSKDSDVYITDKTVLDMRSMDFKSNSAVAWSNKSDFACANAFNNSIIPEDTFFPSPESSCDVKLVEKSFETDTNLNFQNLSVIGFRILLLKVAGFNLLMTLRLWSS
TCR beta: EDLKNVFPPEVAVFEPSEAEISHTQKATLVCLATGFYPDHVELSWWVNGKEVHSGVSTDPQPLKEQPALNDSRYCLSSRLRVSATFWQNPRNHFRCQVQFYGLSENDEWTQDRAKPVTQIVSAEAWGRADCGFTSESYQQGVLSATILYEILLGKATLYAVLVSALVLMAMVKRKDSRG

The target of the assay is CD3 subunits (CD3E, CD3G, CD3D, CD3Z) (human, UniProt P07766 23-207; P09693 23-182; P04234 22-171; P20963 22-164). The experiment in a line: cell-based or functional assay.
Sequence of CD3 subunits (CD3E, CD3G, CD3D, CD3Z) (P07766 23-207, chain 1 of 4): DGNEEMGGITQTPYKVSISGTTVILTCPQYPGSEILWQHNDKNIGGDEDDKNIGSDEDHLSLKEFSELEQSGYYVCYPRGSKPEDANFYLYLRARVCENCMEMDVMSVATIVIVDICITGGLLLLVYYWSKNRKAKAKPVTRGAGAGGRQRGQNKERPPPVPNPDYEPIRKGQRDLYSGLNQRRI
Sequence of CD3 subunits (CD3E, CD3G, CD3D, CD3Z) (P09693 23-182, chain 2 of 4): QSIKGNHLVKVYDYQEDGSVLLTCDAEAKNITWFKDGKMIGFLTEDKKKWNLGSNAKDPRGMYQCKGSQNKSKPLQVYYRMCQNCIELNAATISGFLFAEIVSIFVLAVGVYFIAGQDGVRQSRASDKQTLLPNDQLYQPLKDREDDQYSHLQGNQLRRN
Sequence of CD3 subunits (CD3E, CD3G, CD3D, CD3Z) (P04234 22-171, chain 3 of 4): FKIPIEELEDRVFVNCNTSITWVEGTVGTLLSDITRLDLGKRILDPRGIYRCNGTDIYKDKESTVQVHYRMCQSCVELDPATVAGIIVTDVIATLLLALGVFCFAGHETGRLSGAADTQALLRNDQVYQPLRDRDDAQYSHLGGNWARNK
Sequence of CD3 subunits (CD3E, CD3G, CD3D, CD3Z) (P20963 22-164, chain 4 of 4): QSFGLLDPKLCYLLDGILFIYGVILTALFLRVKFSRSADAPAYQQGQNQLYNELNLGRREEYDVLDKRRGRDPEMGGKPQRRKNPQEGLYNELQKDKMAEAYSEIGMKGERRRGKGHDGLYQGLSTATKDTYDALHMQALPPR
With B1, the “CD3-recruiting activity (CD3-positive proportion, N=3), CD3-stably expressing 293T cells” value (“CD3-recruiting activity” for short) is ≥ 20%. On to B2, for which the “CD3-recruiting activity” value is ≥ 20%.

On to B3, for which the “CD3-recruiting activity” value is ≥ 20%. As for B4, the figure is ≥ 20%; as for B5, ≥ 80%; as for B6, ≥ 80%. Consider B7, for which the “CD3-recruiting activity” value is ≥ 80%. For B8 the value was ≥ 20%; for B9, ≥ 20%; for B10, ≥ 80%. As for B11, the figure is ≥ 80%; as for B12, ≥ 80%; as for B13, ≥ 80%. As for B14, the figure is ≥ 80%.

As to B15, the “CD3-recruiting activity” value is ≥ 80%. As for B16, the figure is ≥ 80%. For B17 the value was ≥ 80%.
